Patent US12006519B2, “Polymerase mutants and use with 3′-OH unblocked reversible terminators” (Agilent Technologies, Inc., priority 2021, dated 2024)

B1: K476W: Therminator with mutation K476W (9° N DNA pol numbering) (protein, UniProt Q56366 1-775, looked up, variant D141A E143A A485L K476W)
DNA polymerase: MILDTDYITENGKPVIRVFKKENGEFKIEYDRTFEPYFYALLKDDSAIEDVKKVTAKRHGTVVKVKRAEKVQKKFLGRPIEVWKLYFNHPQDVPAIRDRIRAHPAVVDIYEYDIPFAKRYLIDKGLIPMEGDEELTMLAFAIATLYHEGEEFGTGPILMISYADGSEARVITWKKIDLPYVDVVSTEKEMIKRFLRVVREKDPDVLITYNGDNFDFAYLKKRCEELGIKFTLGRDGSEPKIQRMGDRFAVEVKGRIHFDLYPVIRRTINLPTYTLEAVYEAVFGKPKEKVYAEEIAQAWESGEGLERVARYSMEDAKVTYELGREFFPMEAQLSRLIGQSLWDVSRSSTGNLVEWFLLRKAYKRNELAPNKPDERELARRRGGYAGGYVKEPERGLWDNIVYLDFRSLYPSIIITHNVSPDTLNREGCKEYDVAPEVGHKFCKDFPGFIPSLLGDLLEERQKIKRKMKATVDPLEWKLLDYRQRLIKILANSFYGYYGYAKARWYCKECAESVTAWGREYIEMVIRELEEKFGFKVLYADTDGLHATIPGADAETVKKKAKEFLKYINPKLPGLLELEYEGFYVRGFFVTKKKYAVIDEEGKITTRGLEIVRRDWSEIAKETQARVLEAILKHGDVEEAVRIVKEVTEKLSKYEVPPEKLVIHEQITRDLRDYKATGPHVAVAKRLAARGVKIRPGTVISYIVLKGSGRIGDRAIPADEFDPTKHRYDAEYYIENQVLPAVERILKAFGYRKEDLRYQKTKQVGLGAWLKVKGKK
modifications: Therminator
B2: L478S: Therminator with mutation L478S (9° N DNA pol numbering) (protein, UniProt Q56366 1-775, looked up, variant D141A E143A A485L L478S)
DNA polymerase: MILDTDYITENGKPVIRVFKKENGEFKIEYDRTFEPYFYALLKDDSAIEDVKKVTAKRHGTVVKVKRAEKVQKKFLGRPIEVWKLYFNHPQDVPAIRDRIRAHPAVVDIYEYDIPFAKRYLIDKGLIPMEGDEELTMLAFAIATLYHEGEEFGTGPILMISYADGSEARVITWKKIDLPYVDVVSTEKEMIKRFLRVVREKDPDVLITYNGDNFDFAYLKKRCEELGIKFTLGRDGSEPKIQRMGDRFAVEVKGRIHFDLYPVIRRTINLPTYTLEAVYEAVFGKPKEKVYAEEIAQAWESGEGLERVARYSMEDAKVTYELGREFFPMEAQLSRLIGQSLWDVSRSSTGNLVEWFLLRKAYKRNELAPNKPDERELARRRGGYAGGYVKEPERGLWDNIVYLDFRSLYPSIIITHNVSPDTLNREGCKEYDVAPEVGHKFCKDFPGFIPSLLGDLLEERQKIKRKMKATVDPLEKKSLDYRQRLIKILANSFYGYYGYAKARWYCKECAESVTAWGREYIEMVIRELEEKFGFKVLYADTDGLHATIPGADAETVKKKAKEFLKYINPKLPGLLELEYEGFYVRGFFVTKKKYAVIDEEGKITTRGLEIVRRDWSEIAKETQARVLEAILKHGDVEEAVRIVKEVTEKLSKYEVPPEKLVIHEQITRDLRDYKATGPHVAVAKRLAARGVKIRPGTVISYIVLKGSGRIGDRAIPADEFDPTKHRYDAEYYIENQVLPAVERILKAFGYRKEDLRYQKTKQVGLGAWLKVKGKK
modifications: Therminator
B3: T590I: Therminator with mutation T590I (9° N DNA pol numbering) (protein, UniProt Q56366 1-775, looked up, variant D141A E143A A485L T590I)
DNA polymerase: MILDTDYITENGKPVIRVFKKENGEFKIEYDRTFEPYFYALLKDDSAIEDVKKVTAKRHGTVVKVKRAEKVQKKFLGRPIEVWKLYFNHPQDVPAIRDRIRAHPAVVDIYEYDIPFAKRYLIDKGLIPMEGDEELTMLAFAIATLYHEGEEFGTGPILMISYADGSEARVITWKKIDLPYVDVVSTEKEMIKRFLRVVREKDPDVLITYNGDNFDFAYLKKRCEELGIKFTLGRDGSEPKIQRMGDRFAVEVKGRIHFDLYPVIRRTINLPTYTLEAVYEAVFGKPKEKVYAEEIAQAWESGEGLERVARYSMEDAKVTYELGREFFPMEAQLSRLIGQSLWDVSRSSTGNLVEWFLLRKAYKRNELAPNKPDERELARRRGGYAGGYVKEPERGLWDNIVYLDFRSLYPSIIITHNVSPDTLNREGCKEYDVAPEVGHKFCKDFPGFIPSLLGDLLEERQKIKRKMKATVDPLEKKLLDYRQRLIKILANSFYGYYGYAKARWYCKECAESVTAWGREYIEMVIRELEEKFGFKVLYADTDGLHATIPGADAETVKKKAKEFLKYINPKLPGLLELEYEGFYVRGFFVIKKKYAVIDEEGKITTRGLEIVRRDWSEIAKETQARVLEAILKHGDVEEAVRIVKEVTEKLSKYEVPPEKLVIHEQITRDLRDYKATGPHVAVAKRLAARGVKIRPGTVISYIVLKGSGRIGDRAIPADEFDPTKHRYDAEYYIENQVLPAVERILKAFGYRKEDLRYQKTKQVGLGAWLKVKGKK
modifications: Therminator
B4: A639F: Therminator with mutation A639F (9° N DNA pol numbering) (protein, UniProt Q56366 1-775, looked up, variant D141A E143A A485L A639F)
DNA polymerase: MILDTDYITENGKPVIRVFKKENGEFKIEYDRTFEPYFYALLKDDSAIEDVKKVTAKRHGTVVKVKRAEKVQKKFLGRPIEVWKLYFNHPQDVPAIRDRIRAHPAVVDIYEYDIPFAKRYLIDKGLIPMEGDEELTMLAFAIATLYHEGEEFGTGPILMISYADGSEARVITWKKIDLPYVDVVSTEKEMIKRFLRVVREKDPDVLITYNGDNFDFAYLKKRCEELGIKFTLGRDGSEPKIQRMGDRFAVEVKGRIHFDLYPVIRRTINLPTYTLEAVYEAVFGKPKEKVYAEEIAQAWESGEGLERVARYSMEDAKVTYELGREFFPMEAQLSRLIGQSLWDVSRSSTGNLVEWFLLRKAYKRNELAPNKPDERELARRRGGYAGGYVKEPERGLWDNIVYLDFRSLYPSIIITHNVSPDTLNREGCKEYDVAPEVGHKFCKDFPGFIPSLLGDLLEERQKIKRKMKATVDPLEKKLLDYRQRLIKILANSFYGYYGYAKARWYCKECAESVTAWGREYIEMVIRELEEKFGFKVLYADTDGLHATIPGADAETVKKKAKEFLKYINPKLPGLLELEYEGFYVRGFFVTKKKYAVIDEEGKITTRGLEIVRRDWSEIAKETQARVLEAILKHGDVEEFVRIVKEVTEKLSKYEVPPEKLVIHEQITRDLRDYKATGPHVAVAKRLAARGVKIRPGTVISYIVLKGSGRIGDRAIPADEFDPTKHRYDAEYYIENQVLPAVERILKAFGYRKEDLRYQKTKQVGLGAWLKVKGKK
modifications: Therminator
B5: D718N: Therminator with mutation D718N (9° N DNA pol numbering) (protein, UniProt Q56366 1-775, looked up, variant D141A E143A A485L D718N)
DNA polymerase: MILDTDYITENGKPVIRVFKKENGEFKIEYDRTFEPYFYALLKDDSAIEDVKKVTAKRHGTVVKVKRAEKVQKKFLGRPIEVWKLYFNHPQDVPAIRDRIRAHPAVVDIYEYDIPFAKRYLIDKGLIPMEGDEELTMLAFAIATLYHEGEEFGTGPILMISYADGSEARVITWKKIDLPYVDVVSTEKEMIKRFLRVVREKDPDVLITYNGDNFDFAYLKKRCEELGIKFTLGRDGSEPKIQRMGDRFAVEVKGRIHFDLYPVIRRTINLPTYTLEAVYEAVFGKPKEKVYAEEIAQAWESGEGLERVARYSMEDAKVTYELGREFFPMEAQLSRLIGQSLWDVSRSSTGNLVEWFLLRKAYKRNELAPNKPDERELARRRGGYAGGYVKEPERGLWDNIVYLDFRSLYPSIIITHNVSPDTLNREGCKEYDVAPEVGHKFCKDFPGFIPSLLGDLLEERQKIKRKMKATVDPLEKKLLDYRQRLIKILANSFYGYYGYAKARWYCKECAESVTAWGREYIEMVIRELEEKFGFKVLYADTDGLHATIPGADAETVKKKAKEFLKYINPKLPGLLELEYEGFYVRGFFVTKKKYAVIDEEGKITTRGLEIVRRDWSEIAKETQARVLEAILKHGDVEEAVRIVKEVTEKLSKYEVPPEKLVIHEQITRDLRDYKATGPHVAVAKRLAARGVKIRPGTVISYIVLKGSGRIGDRAIPANEFDPTKHRYDAEYYIENQVLPAVERILKAFGYRKEDLRYQKTKQVGLGAWLKVKGKK

Test system: Lightning Terminators
Test: Sequencing-by-synthesis with Lightning Terminators (87 cycles)
Assay type: biochemical
Design: ARL (87 cycles) / Lead + Lag / Leading / Lagging: unit not given here
Details: Therminator mutants, same unit concentrations (0.08 U/ul in cycle 1 and 0.008 U/ul in cycles 2-n)
Experimental: This section generally describes how the present mutant polymerases were used for sequencing-by-synthesis, and how their performance in sequencing was measured. Sequencing was performed on a breadboard instrument, essentially as described in Hertzog D, et al., “A high-performance, low-cost approach to next-generation sequencing”, BioOptics World. 2011 Issue November/December 2011.
In this example, mutations were introduced into the DNA polymerase of SEQ ID NO: 12 (Therminator) in an attempt to improve its capability in sequencing with 3′-OH unblocked terminators. Such mutations to Thermococcus sp. 9° N DNA polymerase are disclosed in U.S. Pat. Nos. 9,273,352; 9,677,059; 9,765,309; U.S. Pat. App. Publication No. 20160032377. The following table summarizes sequencing metrics with Lightning Terminators.
As used in this example and those that follow, “Lead+Lag” refers to dephasing errors in Sequencing by Synthesis technology caused by either reading the next base signal (Lead) or reading the previous base signal (Lag) relative to current base signals. Such errors may arise because of imperfect incoporation of reversible terminators by the polymerase.
In this example, mutant polymerases were created by introducing certain mutations (D141A/E143A/A485L) which are present in Therminator. The three mutations were introduced at the equivalent positions in JDF3 (Thermococcus sp. JDF3) and Pfu (Pyrococcus furisosus) DNA polymerases. The new mutant polymerases were then evaluated for their performance in sequencing with Lightning Terminators, as described above.

Compared with B1, B2 is lower in “% reads >85 bp” value: 31.8% for the first, 19.6% for the second.

Going from B3 to B4, the “% reads >85 bp” value falls from 32.2% to 6.9%.

For B5, the “% reads >85 bp” value was 17.9%.

First: B1
Second: B2
The “ARL (87 cycles)” value of the first is higher: 70.2 for the first, 65.8 for the second.

Going from B3 to B4, the “ARL (87 cycles)” value falls from 68.1 to 58.5.

With B5 the “ARL (87 cycles)” value was 65.6.

Compared with B1, B2 is higher in “Lead + Lag” value: 1.4 for the first, 1.6 for the second.

Compared with B3, B4 is higher in “Lead + Lag” value: 1.3 for the first, 2.3 for the second.

In the case of B5, the “Lead + Lag” value is reported as 1.8.
